Measurements: US20220119540A1 (NANJING GENSCRIPT BIOTECH, published 2022)
Each block holds one molecule with its values, some of them ahead of it.

Assays:
[1] = target: OX40 on a functional cell line overexpressing OX40 (UniProt P43489); experiment: cell-based or functional assay
[2] = target: T1, Recombinant human OX40-His protein (human, UniProt P43489 29-214, limits assumed); experiment: SPR (Biacore 8K), OX40-HIS coupled to chip, antibody as analyte, 1:1 binding model
T1 construct: Recombinant antigen protein; also called recombinant human OX-40 protein; human OX-40 protein; not shown: His tag
T1 sequence (looked up): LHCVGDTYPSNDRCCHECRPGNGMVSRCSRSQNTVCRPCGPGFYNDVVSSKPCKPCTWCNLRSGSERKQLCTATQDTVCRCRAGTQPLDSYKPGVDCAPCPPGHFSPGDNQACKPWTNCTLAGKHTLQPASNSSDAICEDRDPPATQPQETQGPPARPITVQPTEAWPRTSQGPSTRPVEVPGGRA
Protocol: The chip surface was equilibrated with HBS-EP buffer at a flow rate of 10 μl/min for 5 min, and then a 1:1 mixture of “NHS+EDC” was injected at a flow rate of 10 μl/min for 100 sec to activate the chip. The antigen protein (OX40-HIS) diluted in 10 mM sodium acetate buffer was injected for about 180 sec at a flow rate of 10 μl/min for coupling, and finally ethanolamine was injected for 200 sec at a flow rate of 10 μl/min to block the surface.
Three pre-cycles were performed with the HBS-EP buffer as a sample to balance the chip to stabilize the baseline. A low concentration of antibody was injected at a flow rate of 30 μl/min for 200 sec, to allow the antigen to bind to the antibody, and then the buffer was injected at a flow rate of 30 μl/min for 400 sec for dissociation. 10 mM Gly-HCl pH2.0 was injected three times each for 30 sec at a flow rate of 30 μl/min for regeneration, to complete one cycle.
The antibody concentration was changed to carry out the cycle for measurement at a next gradient concentration until all gradient concentrations (2.5 nM, 5 nM, 10 nM, 20 nM, 40 nM, and […]) and the replicate (such as 20 nM) were tested. The experimental data was double subtracted (minus the background values of the control channel and zero concentration), and fitted to the “1:1 binding” model in the Biacore 8K evaluation software. Biacore 8K was used to determine the affinity of the antibody to the OX40-HIS recombinant protein.

[3] = target: T2, Recombinant monkey OX-40 protein (monkey); experiment: ELISA, plate coated with recombinant monkey OX-40 protein, antibody titrated
T2 chain: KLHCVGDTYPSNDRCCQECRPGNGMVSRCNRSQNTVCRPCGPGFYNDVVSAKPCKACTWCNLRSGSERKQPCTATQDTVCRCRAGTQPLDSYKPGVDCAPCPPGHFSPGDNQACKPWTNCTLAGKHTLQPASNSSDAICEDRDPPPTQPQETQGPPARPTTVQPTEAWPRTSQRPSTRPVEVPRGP

[4] = target: T1, Recombinant human OX40-His protein; experiment: ELISA, plate coated with recombinant human OX-40 protein, antibody titrated
Protocol: Recombinant human OX-40 protein and recombinant monkey OX-40 protein were respectively used to detect the cross-recognition ability of humanized monoclonal antibodies for human/monkey OX-40 protein.
The ELISA plate (Nunc) was coated with 100 μl/well of […] recombinant OX40-His protein in PBS at 4° C. overnight. The plate was washed with PBS-T (0.05% Tween) and blocked with 200 μl/well of PBST containing 1% BSA at 37° C. for 0.5 hr. Then the blocking buffer was discarded, 100 μl of 1000 ng/ml purified antibody was added to the first well, 3-fold serial dilutions were made, and a total of 11 test concentration gradients were given. Then the system was incubated for 1 hr at room temperature. The plate was washed three times with PBST and incubated with 100 μl/well of horseradish peroxidase-conjugated goat anti-human Fab fragment-IgG (Fab-specific) (GenScript) at 37° C. for 0.5 hr. The plate was washed 5 times with PBST, and then a TMB developing solution (GenScript) was added and incubated at room temperature for 15 min in the dark. The reaction was terminated by adding 50 μl of 1 M HCl stop solution (Sigma). The plate was read at 450 nm on a microplate reader.

[5] = target: T3, OX40 on a functional cell line overexpressing OX40 (UniProt P43489 29-277, limits assumed); experiment: cell-based or functional assay
T3 sequence (looked up): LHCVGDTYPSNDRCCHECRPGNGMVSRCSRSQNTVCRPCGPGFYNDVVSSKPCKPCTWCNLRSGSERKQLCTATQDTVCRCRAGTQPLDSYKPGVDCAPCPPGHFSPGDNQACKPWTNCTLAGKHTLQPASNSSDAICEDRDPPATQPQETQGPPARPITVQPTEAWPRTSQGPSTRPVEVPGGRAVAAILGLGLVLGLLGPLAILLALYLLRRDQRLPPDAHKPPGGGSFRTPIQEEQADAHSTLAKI

[6] = target: T1, Recombinant human OX40-His protein; experiment: kinetic ranking (RU, 1:1 binding model), antibody product as ligand, OX40-His as analyte

IL-8 secretion by OX40 overexpressing functional cell line, EC50 [1]: 2.54 nM | IL-8 secretion by OX40 overexpressing functional cell line, best-fit value Bottom [1]: 4130 | IL-8 secretion by OX40 overexpressing functional cell line, best-fit value LogEC50 [1]: 0.404 | IL-8 secretion by OX40 overexpressing functional cell line, best-fit value Top [1]: 19900
Molecule: OX40 ligand (from UniProt P23510 51-183)

Kd [2]: 2.15 nM | koff [2]: 0.000616 s⁻¹ | kon [2]: 287000 M⁻¹ s⁻¹ | EC50 [3]: 0.0303 µg/mL | EC50 [4]: 0.0107 µg/mL | IL-8 secretion by OX40 overexpressing functional cell line, EC50 [5]: 1.55 nM | IL-8 secretion by OX40 overexpressing functional cell line, best-fit value Bottom [5]: 3350 | IL-8 secretion by OX40 overexpressing functional cell line, best-fit value LogEC50 [5]: 0.191 | IL-8 secretion by OX40 overexpressing functional cell line, best-fit value Top [5]: 21000
B1: AH02923 humanized anti-human OX40 monoclonal antibody (recombinant human IgG1/kappa) (antibody, V domains shown)
VH: QVQLVQSGAEVKKPGASVKVSCKASGYTFTDYSMHWVRQAPGQGLEWMGWISTETGEPTYADDFKGRFTFTLDTSASTAYLELSSLRSEDTAVYYCARVRPWYLAVWGQGTLVTVSS
VL: DIQMTQSPSSLSASVGDRVTITCRASQDISNYLNWYQQKPGKAVKLLIYYTSRLYSGVPSRFSGSGSGTDYTFTISSLQPEDIATYYCQQANTLPLTFGGGTKLEIK

Kd [6]: 11.2 nM | koff [6]: 0.00487 s⁻¹ | kon [6]: 434000 M⁻¹ s⁻¹
B2: Chimeric antibody, as ranked with the prokaryotically expressed antibody products (back-mutation screening) (Fab, V domains shown)
VH: QIQLVQSGPELKKPGETVKISCKASGYTFTDYSMHWVKQAPGKGLKWMGWISTETGEPTYADDFKGRFAFSLETSASTAYLQIKNLKNEDTASYFCARVRPWYLAVWGAGTTVTVSS
VL: DIQMTQTTSSLSASLGDRVTISCRASQDISNYLNWYQQKPDGTVKLLIYYTSRLYSGVPSRFSGSGSGADYSLTVSNLEQEDIATYFCQQANTLPLTFGAGTKLELK
